Changes are numbered by the printed parent chain.
B1: huSP34.3.7 Fab-HF (Fab, V domains shown)
VH: EVQLVESGGGLVQPGGSLRLSCAASGFTFNTYAMNWVRQAPGKGLEWVGRIRSKYNNYATYYADSVKGRFTISRDDSKNSLYLQMNSLRTEDTAVYYCVRHGNFGHSYVSWFAYWGQGTLVTVSS
VL: QAVVTQEPSLTVSPGGTVTLTCRSSTGAVTTGHYANWVQQKPGQAPRGLIGGTNKRAPGVPARFSGSLLGGKAALTISGAQPEDEAEYYCALWYSNLWVFGGGTKLTVL
notes: also called HC3+LC7
B2: huSP34.11.9 Fab-HF (Fab, V domains shown)
VH: B1 VH with N30S, D64A
VL: B1 VL with E7P, R23G, L69S
notes: also called HC11+LC9
B3: huSP34.3.9 Fab-HF (Fab, V domains shown)
VH: B1 VH
VL: B1 VL with E7P, R23G, L69S
notes: also called HC3+LC9
B4: huSP34.12.9 Fab-HF (Fab, V domains shown)
VH: B1 VH with N30S, G49A, D64A
VL: B1 VL with E7P, R23G, L69S
notes: also called HC12+LC9
B5: huSP34.11.10 Fab-HF (Fab, V domains shown)
VH: B1 VH with N30S, D64A
VL: B1 VL with E7P, R23G, L69S, L97R
notes: also called HC11+LC10
B6: huSP34.11.8 Fab-HF (Fab, V domains shown)
VH: B1 VH with N30S, D64A
VL: B1 VL with R23G, L97R
notes: also called HC11+LC8
B7: huSP34.11.7 Fab-HF (Fab, V domains shown)
VH: B1 VH with N30S, D64A
VL: B1 VL
notes: also called HC11+LC7
B8: huSP34.12.7 Fab-HF (Fab, V domains shown)
VH: B1 VH with N30S, G49A, D64A
VL: B1 VL
notes: also called HC12+LC7
B9: huSP34.13.7 Fab-HF (Fab, V domains shown)
VH: B1 VH with N30S, D64A, S80T
VL: B1 VL
notes: also called HC13+LC7
B10: huSP34.12.10 Fab-HF (Fab, V domains shown)
VH: B1 VH with N30S, G49A, D64A
VL: B1 VL with E7P, R23G, L69S, L97R
notes: also called HC12+LC10
B11: huSP34.12.8 Fab-HF (Fab, V domains shown)
VH: B1 VH with N30S, G49A, D64A
VL: B1 VL with R23G, L97R
notes: also called HC12+LC8
B12: huSP34.10.6 Fab-HF (Fab, V domains shown)
VH: B1 VH with N30S, T31D, I51T, N57S, D64A, R89K, Y114V
VL: B1 VL with E7P, R23G, N54S, K55N, L69S, N96A, L97R
notes: also called HC10+LC6
B13: huSP34.6.6 Fab-HF (Fab, V domains shown)
VH: B1 VH with N30S, D76N, S80T, T90A, V95M, H106N, Y114V
VL: B1 VL with E7P, R23G, N54S, K55N, L69S, N96A, L97R
notes: also called HC6+LC6
B14: huSP34.5.6 Fab-HF (Fab, V domains shown)
VH: B1 VH with N30S, D76N, S80T, T90A, Y114V
VL: B1 VL with E7P, R23G, N54S, K55N, L69S, N96A, L97R
notes: also called HC5+LC6
B15: huSP34.9.6 Fab-HF (Fab, V domains shown)
VH: B1 VH with N30S, T31D, I51T, N57S, D64A, R89K, H106N, Y114V
VL: B1 VL with E7P, R23G, N54S, K55N, L69S, N96A, L97R
notes: also called HC9+LC6
B16: huSP34.7.6 Fab-HF (Fab, V domains shown)
VH: B1 VH with N30S, T31D, I51T, D64A, R89K, H106N, Y114V
VL: B1 VL with E7P, R23G, N54S, K55N, L69S, N96A, L97R
notes: also called HC7+LC6
B17: huSP34.9.5 Fab-HF (Fab, V domains shown)
VH: B1 VH with N30S, T31D, I51T, N57S, D64A, R89K, H106N, Y114V
VL: B1 VL with R23G, N54S, K55N, G59W, V60T, I77L, N96A, L97R
notes: also called HC9+LC5
B18: huSP34.10.5 Fab-HF (Fab, V domains shown)
VH: B1 VH with N30S, T31D, I51T, N57S, D64A, R89K, Y114V
VL: B1 VL with R23G, N54S, K55N, G59W, V60T, I77L, N96A, L97R
notes: also called HC10+LC5
B19: huSP34.10.4 Fab-HF (Fab, V domains shown)
VH: B1 VH with N30S, T31D, I51T, N57S, D64A, R89K, Y114V
VL: B1 VL with R23G, G32S, N54S, G59W, V60T, I77L, N96A
notes: also called HC10+LC4
B20: huSP34.10.1 Fab-HF (Fab, V domains shown)
VH: B1 VH with N30S, T31D, I51T, N57S, D64A, R89K, Y114V
VL: B1 VL with G32S, H33N, G59W, V60T, L69I, G71D, I77L
notes: also called HC10+LC1
B21: huSP34.10.2 Fab-HF (Fab, V domains shown)
VH: B1 VH with N30S, T31D, I51T, N57S, D64A, R89K, Y114V
VL: B1 VL with R23G, G32S, H33N, N54S, K55N, G59W, V60T, I77L
notes: also called HC10+LC2
B22: huSP34.35.15 Fab-HF (Fab, V domains shown)
VH: B1 VH with T31D, I51T, D64A, R89K, V95M
VL: B1 VL with E7P, R23G, L69S, N96A, L97R
notes: also called HC35+LC15
B23: huSP34.34.6 Fab-HF (Fab, V domains shown)
VH: B1 VH with D64A, R89K, V95M
VL: B1 VL with E7P, R23G, N54S, K55N, L69S, N96A, L97R
notes: also called HC34+LC6
B24: huSP34.35.6 Fab-HF (Fab, V domains shown)
VH: B1 VH with T31D, I51T, D64A, R89K, V95M
VL: B1 VL with E7P, R23G, N54S, K55N, L69S, N96A, L97R
notes: also called HC35+LC6
B25: huSP34.34.10 Fab-HF (Fab, V domains shown)
VH: B1 VH with D64A, R89K, V95M
VL: B1 VL with E7P, R23G, L69S, L97R
notes: also called HC34+LC10
B26: huSP34.34.16 Fab-HF (Fab, V domains shown)
VH: B1 VH with D64A, R89K, V95M
VL: B1 VL with E7P, R23G, N54S, K55N, G59W, V60T, L69S, L97R
notes: also called HC34+LC16
B27: huSP34.34.18 Fab-H (Fab, V domains shown)
VH: B1 VH with D64A, R89K, V95M
VL: B1 VL with E7P, R23G, N54S, K55N, G59W, V60T, L69S, N96A, L97R
notes: also called HC34+LC18
B28: huSP34.3.19 Fab-HF (Fab, V domains shown)
VH: B1 VH
VL: B1 VL with R23G, N96A, L97R
notes: also called HC3+LC19
B29: huSP34.35.12 Fab-H (Fab, V domains shown)
VH: B1 VH with T31D, I51T, D64A, R89K, V95M
VL: B1 VL with E7P, R23G, G59W, V60T, L69S, L97R
notes: also called HC35+LC12
B30: huSP34.34.17 Fab-HF (Fab, V domains shown)
VH: B1 VH with D64A, R89K, V95M
VL: B1 VL with E7P, R23G, G59W, V60T, L69S, N96A, L97R
notes: also called HC34+LC17
B31: huSP34.37.10 Fab-HF (Fab, V domains shown)
VH: B1 VH with I51T, D64A, R89K, V95M
VL: B1 VL with E7P, R23G, L69S, L97R
notes: also called HC37+LC10
B32: huSP34.34.14 Fab-HF (Fab, V domains shown)
VH: B1 VH with D64A, R89K, V95M
VL: B1 VL with E7P, R23G, N54S, K55N, L69S, L97R
notes: also called HC34+LC14
B33: huSP34.36.10 Fab-HF (Fab, V domains shown)
VH: B1 VH with T31D, D64A, R89K, V95M
VL: B1 VL with E7P, R23G, L69S, L97R
notes: also called HC36+LC10
B34: huSP34.3.13 Fab-HF (Fab, V domains shown)
VH: B1 VH
VL: B1 VL with R23G, N54S, K55N, L97R
notes: also called HC3+LC13
B35: huSP34.34.11 Fab-HF (Fab, V domains shown)
VH: B1 VH with D64A, R89K, V95M
VL: B1 VL with R23G, I77L
notes: also called HC34+LC11
B36: huSP34.35.10 Fab-HF (Fab, V domains shown)
VH: B1 VH with T31D, I51T, D64A, R89K, V95M
VL: B1 VL with E7P, R23G, L69S, L97R
notes: also called HC35+LC10
B37: huSP34.34.15 Fab-HF (Fab, V domains shown)
VH: B1 VH with D64A, R89K, V95M
VL: B1 VL with E7P, R23G, L69S, N96A, L97R
notes: also called HC34+LC15
B38: huSP34.34.12 Fab-HF (Fab, V domains shown)
VH: B1 VH with D64A, R89K, V95M
VL: B1 VL with E7P, R23G, G59W, V60T, L69S, L97R
notes: also called HC34+LC12

Biological target: T1, biotinylated CD3 epsilon:delta heterodimer protein (Amsbio AMS.CDD-H52WO) (Homo sapiens (Human), UniProt P07766 23-126; P04234 22-105)
T1 construct: also called CD3 heterodimer
Experiment: BLI (Octet), CD3 on SA sensor, Fab analyte;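 on result: biolayer interferometry with biotinylated CD3 epsilon:delta captured on streptavidin sensors, Fab analyte at several concentrations up to 300 nM, 100 s association then 300 s dissociation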
Experimental: (§1) The CD3 binding kinetics of the purified huSP34 Fabs were determined using OctetRed384 (Pall ForteBio, CA) biolayer interferometry (BLI). […] Streptavidin (SA) coated biosensors tips (Pall ForteBio, CA) were used to capture biotinylated CD3 epsilon: delta heterodimer and typical immobilization levels captured on the SA sensors were 1 nm which approximately translates to 300 ng/ml of captured protein. For kinetic measurements biosensors were first pre-wetted with assay buffer for 10 minutes to remove protective sucrose coating followed by the recommended regeneration conditions for standardization of the biosensor surface for the experiment. In order to load the biosensors with antigen, 300 ng/ml of biotinylated CD3 epsilon: delta heterodimer protein (Amsbio AMS.CDD-H52WO) was immobilized on the SA sensor for 900 seconds. The CD3 loaded biosensors were then blocked with 20 ug/ml biocytin (sigma) for 200 seconds and then dipped into assay buffer containing wells for 200 seconds to remove any non-specific protein or unbound CD3 heterodimer.
(§2) CD3 loaded and biocytin blocked biosensors were then transferred into fresh assay buffer for 200 seconds to collect a baseline read. Kinetic measurements for anti-CD3 Fab and bispecific antibody binding were performed by dipping the CD3-coated biosensors into wells containing multiple concentrations of Fab or Ab (0-300 nM) for 100 seconds followed by a 300 second dissociation time by transferring the biosensors into assay buffer containing wells. The CD3 loaded sensors were then regenerated for the next kinetic measurement. Biosensors were generated by removing bound Fabs or Ab from immobilized CD3 on SA biosensors. Regeneration conditions used consisted of 3 cycles of 5 seconds of dipping the biosensors in Regeneration Buffer (10 mM Glycine HCl pH 1.5) followed by Assay Buffer (10 mM sodium phosphate pH 7.4, 140 mM Sodium Chloride, 0.005% Tween20 with 0.2% BSA).

Binder | Kd [nM] | koff [s⁻¹] | kon [M⁻¹ s⁻¹]
B1 | 5.6 | 0.00168 | 323000
B2 | 3.4 | 0.00284 | 898000
B3 | 3.5 | 0.00221 | 632000
B4 | 3.2 | 0.00335 | 1.04e+06
B5 | 2.8 | 0.00192 | 697000
B6 | 2.8 | 0.00165 | 610000
B7 | 3.6 | 0.00212 | 613000
B8 | 2.7 | 0.00244 | 966000
B9 | 2.8 | 0.00275 | 1.01e+06
B10 | 4.2 | 0.00205 | 501000
B11 | 3.4 | 0.00166 | 493000

Biological target: T1, biotinylated CD3 epsilon:delta …
Experiment: BLI (Octet), CD3 on SA sensor, Fab analyte;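 on result: biolayer interferometry with biotinylated CD3 epsilon:delta captured on streptavidin sensors, Fab analyte at several concentrations up to 300 nM, 100 s association then 300 s dissociation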
Remark: another data set of the same source
Experimental: as §1, §2

Binder | Kd [nM] | koff [s⁻¹] | kon [M⁻¹ s⁻¹] | binding result
B12 | 314 | 0.157 |  | 
B13 | 75 | 0.0292 | 464000 | 
B14 | 268 | 0.0746 | 280000 | 
B15 | 289 | 0.169 | 582000 | 
B16 | 425 | 0.17 | 403000 | 
B17 |  |  |  | no binding (tested: 0-300 nM)
B18 | 222 | 0.0827 |  | 
B19 |  |  |  | no binding (tested: 0-300 nM)
B20 |  |  |  | no binding (tested: 0-300 nM)
B21 | 307 | 0.0664 | 225000 | 

Biological target: T1, biotinylated CD3 epsilon:delta …
Experiment: BLI (Octet), CD3 on SA sensor, Fab analyte;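 on result: biolayer interferometry with biotinylated CD3 epsilon:delta captured on streptavidin sensors, Fab analyte at several concentrations up to 300 nM, 100 s association then 300 s dissociation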
Remark: another data set of the same source
Experimental: as §1, §2

Binder | Kd [nM] | koff [s⁻¹] | kon [M⁻¹ s⁻¹]
B22 | 303 | 0.17 | 560000
B23 | 8 | 0.00357 | 449000
B24 | 178 | 0.187 | 1.55e+06
B25 | 4 | 0.000303 | 155000
B26 | 28.8 | 0.00599 | 208000
B27 | 87.1 | 0.0224 | 257000
B28 | 9.9 | 0.00164 | 193000
B29 | 125 | 0.103 | 2.08e+06
B30 | 29.9 | 0.00816 | 273000
B31 | 16.1 | 0.00267 | 171000
B32 | 3.9 | 0.00126 | 345000
B33 | 5.8 | 0.00929 | 1.6e+06
B34 | 6.2 | 0.00129 | 218000
B35 | 10.8 | 0.00118 | 143000
B36 | 224 | 0.0759 | 339000
B37 | 14.7 | 0.0015 | 109000
B38 | 8.1 | 0.0014 | 189000

Reference: US20230056252A1 (Gilead, published 2023)
